Test results taken from article PMC11039992, “Distinct functions for the paralogous RBM41 and U11/U12-65K proteins in the minor spliceosome”.

T1: U11/U12-65K C-terminal RRM (65K C-RRM) (Homo sapiens, UniProt Q96LT9 380-517)
T1 sequence: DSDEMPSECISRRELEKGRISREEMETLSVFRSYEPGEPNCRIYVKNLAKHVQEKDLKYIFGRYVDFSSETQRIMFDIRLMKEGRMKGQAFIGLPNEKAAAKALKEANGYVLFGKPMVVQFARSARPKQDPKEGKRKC

T2: RBM41 RRM (C-terminal fragment) (Homo sapiens, UniProt Q96IZ5 267-413)
T2 sequence: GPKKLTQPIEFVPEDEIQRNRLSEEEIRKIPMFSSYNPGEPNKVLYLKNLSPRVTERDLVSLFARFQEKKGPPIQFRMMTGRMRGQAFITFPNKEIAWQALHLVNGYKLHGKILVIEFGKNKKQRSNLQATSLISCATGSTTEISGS


Legend:
[1] = biological target: T1, U11/U12-65K C-terminal RRM (65K C-RRM); test: EMSA; 20 mM HEPES-KOH pH 8.0, 100 mM KCl, 1.5 mM MgCl2, 5% glycerol, 0.1 ug/ul BSA, 1 ug/ul yeast RNA, 1 U/ul RiboLock; 5 nM RNA, 0.25-25 uM protein; 1 h on ice, gel; settings: protein: recombinant; tags: GST tag removed with PreScission protease (untagged); label: 5' 32P; hairpin
[2] = biological target: T2, RBM41 RRM (C-terminal fragment); test: as above; settings: protein: recombinant; tags: GST tag removed with PreScission protease (untagged); label: 5' 32P; hairpin

| Binder | Kd [1] | Kd [2] | binding result [1] | binding result [2] |
| --- | --- | --- | --- | --- |
| CCCGCCUACUUUGCGGG (structured_RNA) [U12-(109-125) hairpin] | 1040 nM | 2140 nM | – | – |
| GCCACCUACUUCGUGGC (structured_RNA) [U6atac-(92-108) hairpin] | 2070 nM | 3780 nM | – | – |
| GGGCGGAUGAAACGCCC (structured_RNA) [U12comp control hairpin] | – | – | no binding | no binding |
